Measured values from patent US12371675B2, “Process and microorganism for synthesis of adipic acid from carboxylic acids” (THE GOVERNING COUNCIL OF THE UNIVERSITY OF TORONTO, priority 2015, dated 2025).

Assay: AR reductase activity, NAD(P)H oxidation at 340 nm
Format: biochemical
Conditions: 10 mM, ND = no activity was detected; for Activity [U/mg protein] Adipaldehyde: 1.8% DMSO
Description: Enzyme activity of purified ARs was measured spectrophotometrically in 96-well plates Reaction mixtures contained 100 mM HEPES buffer (pH 7.5), 0.4 mM NADH/NADPH, 10 mM adipaldehyde or butylaldehyde, and proteins (10 μg for adipaldehyde screen, 2 μg for butyraldehyde screen) in a final volume of 200 μL Reaction mixture for adipaldehyde screening contained 1.8% DMSO. Enzyme reactions were monitored by following the decrease in absorbance at 340 nm (ε340 nm=6,220/M·cm) due to oxidation of NAD(P)H to NAD(P)+.

B1: PP_3370: aldehyde reductase (AR) from Pseudomonas putida (protein)
chain: MQYVKLGSTGLDISRLCLGCMTFGEPDAGTHPWTLGEDASRPIIRHAVEQGINFFDTANSYSAGTSEIILGKLLREFTRREETVIATKVFFPANMWEGASRPNEQGLSRKAIMANIDASLSRLGTDYVDLYQIHRWDYHTPIEETMEALHDVVKAGKARYIGASSMYAWQFAKAQQVAANHGWSRFVSMQNYLNLIYREEEREMIPLCLDQGVGLMPWSPMARGRLTRPHGQQTQRTRTDVSGQSFYEKTEVEDGRVIDVVEQIASERGVPMAQVALAWVLGRAGVSAPIVGASKPAHLDDALGALSLQLSEDEVARLQAPYVPHAVTGFK
In the case of B1, the “Activity [U/mg protein] Adipaldehyde” value is reported as 0.437 ± 0.043 U/mg protein and the “Activity [U/mg protein] Butyraldehyde” value is reported as 1.516 ± 1.382 U/mg protein.

B2: SCO0229: aldehyde reductase (AR) from Streptomyces coelicolor (protein)
chain: MQRQNWLITGVSTGLGRAFAQAALSAGHTVVGTVRSENDVRAFEELGPGHAHGRILDVTDGGAVNGVVAEVERSVGPLDVVVANAGYGLEGTFEETPLAEVRRQFDVNVFGAMATLQAALPHMRARRRGHLMAVTSMGGLMAVPGMSAYCGSKFALEGILEALGKEVAQFGIHVTAIEPGSFRTDWAGRSMTRAARTVADYDDLFAPIREARQKASGNQLGNPAKAGEAVVHITSVDQPPAHLVLGSDALRLVTAARTAVDEDIRAWEALSRTTDFPQGAQL
In the case of B2, the “Activity [U/mg protein] Adipaldehyde” value is reported as 0.362 ± 0.05 U/mg protein and the “Activity [U/mg protein] Butyraldehyde” value is reported as 0.892 ± 0.847 U/mg protein.

B3: Atu2528: aldehyde reductase (AR) from Agrobacterium fabrum (protein)
chain: MQPFVYMAAPARIVFSAGSSADVAEEIRRLGLSRALVLSTPQQKGDAEALASRLGRLAAGVFSEAAMHTPVEVTKTAVEAYRAAGADCVVSLGGGSTTGLGKAIALRTDAAQIVIPTTYAGSEVTPILGQTENGVKTTMRGPEILPEVVIYDAELTLGLPVAISMTSGLNAMAHAAEALYARDRNPIASMMAVEGLRAMIEALPVVRQAPHDIGARETALYGAWLCGTVLGAVGMSLHHKLCHTLGGSLDLPHAETHAVLLPHTIAYVEEAAPNLLAPLAALVGGRAGAGLFDFAARLGAPSSLAALGVGADDLDPMAELATANPYWCPRPIEKTAIRDLLQRAFEGARPA
With B3 the “Activity [U/mg protein] Butyraldehyde” value was 0.110 ± 0.089 U/mg protein.

B4: PA2918: aldehyde reductase (AR) from Pseudomonas aeruginosa (protein)
chain: MVDHSIKGKTVLITGGAKNLGGLIARDLAAHGAKAITIHYNSAASKADADATVAALQAAGAKAVALQGDLTSAAAMEKLFADAIAAVGKPDIAINTVGKVLKKPITEISETEYDEMSAVNSKSAFFFLREAGKHVNDNGKICTLVTSLLGAYTPYYAAYAGTKAPVEHFTRAASKEFGARGISVTAVGPGPMDTPFFYPAEGADAVDYLKNAAALSPFSKTGLTDIDDVVPFIRHLVSEGWWITGQTILINGGFSTK
In the case of B4, the “Activity [U/mg protein] Butyraldehyde” value is reported as 0.137 ± 0.03 U/mg protein.

B5: PSPTO_2097: aldehyde reductase (AR) from Pseudomonas syringae (protein)
chain: MIEHLKLAGKVALVQGGSRGIGAAIVNRLAKEGAAVAFTYINSEVNALEIQDSINANGGRALAIRADSADEKAIRQAVQTTAETLGRLDILVNNAGVLAIAPLNEFSMQDFDKTLAINVRSVFIASQEAARHMEEGGRIINIGSTNAERMPFAGGATYAMSKSALIGLTKGMARDLGPQGITVNNVQPGPVDTDMNPAQGEFAESLKALMALPRYGKSEEIASFVAYLAGPEAGYITGASLTIDGGFSA
For B5, the “Activity [U/mg protein] Adipaldehyde” value was 1.046 ± 0.009 U/mg protein and the “Activity [U/mg protein] Butyraldehyde” value was 0.59 ± 0.597 U/mg protein.

B6: SFyv_1886: aldehyde reductase (AR) from Shigella flexneri (protein)
chain: MHYQPKQDLLNDRIILVTGASDGIGREAAMTYARYGATVILLGRNEEKLRQVASHINEETGRQPQWFILDLLTCTSENCQQLAQRIVVNYPRLDGVLHNAGLLGDVCPMSEQNPQVWQDVMQINVNATFMLTQALLPLLLKSDAGSLVFTSSSVGRQGRANWGAYAASKFATEGMMQVLADEYQQRLRVNCINPGGTRTAMRASAFPTEDPQKLKTPADIMPLYLWLMGDDSRRKTGMTFDAQPGRKPGISQ
In the case of B6, the “Activity [U/mg protein] Butyraldehyde” value is reported as 0.124 ± 0.042 U/mg protein.

B7: RPA0021: aldehyde reductase (AR) from Rhodopseudomonas palustris (protein)
chain: MTPRNATVAVIGAGDYIGAEIAKKFAAEGFTVFAGRRNGEKLAPLVAEIEAAGGRIVARSLDARNEDEVTAFLNAADAHAPLEVTIFNVGANVNFPILETTDRVFRKVWEMACWAGFVSGRESARLMLAHGQGKIFFTGATASLRGGSGFAAFASAKFGLRAVAQSMARELMPKNIHVAHLIIDSGVDTAWVRERREQMFGKDALANPDLLMPPAAVAGAYWQLYQQPKSAWTFEMEIRPYGEKW
For B7, the “Activity [U/mg protein] Butyraldehyde” value was 0.116 ± 0.031 U/mg protein.

B8: TM_0111: aldehyde reductase (AR) from Thermotoga maritima (protein)
chain: MFKISFYLPTEIIFRVGAVDELEERAKKLGKKALIVTGRSSTKKTGLLQRVVDLLKKAGVESFVFDKIVPNPISDHVDEAAEIVRKEKIDFIIGLGGGSPIDSAKAISITAPNEGKFWDYVPVGGGKIPEKSIPVVAIPTTHGTGTEADPFAVITNPQTKEKVGIGYRNTFPVLSLVDPEVMKTLPKDQTAYTSMDAFYHAIEAFLNVNANPYSDVLALDAMKRIVTYLPVAYENGEDMEARTNLAWASTEAGITETLTGVIANHALEHGLSGFYPEITHGLGLCITGPYLFEYIFDHAYERLAIVGREVFGVYETDDRKAGRLAIKKLRDFQEMFGLNKRLSELGVKKEDIPKMAETGYRILNGVVVVTPGNLTAKDMEEIFNRCY
With B8 the “Activity [U/mg protein] Butyraldehyde” value was 1.055 ± 0.43 U/mg protein.

B9: RHA1_ro08443: aldehyde reductase (AR) from Rhodococcus jostii (protein)
chain: MPEIVKFEMPRVETVVQGVGAVREIGAELDRRDLKRVFLVTGHSVGSSEAFAALASDLGDRVVGIFDQVKAHNPVELIVELITAAKSAQAEAFVAVGGGSPVDAAKLAAIGLCEGSESVEDLARNYLVFEYPNTIHQKPLTGTPMPVFAVPTTLSAAEWDGFAGSVDHTRDTKDLTVYLEATPQVVFLDPEFCAHTPRDLWATTGVRALDHAVETAYAKNAHPFTTALANGALTMLAENLPRSVKDPHDYDAALKCLEAAWMSIIGVHNVSLGLSHAIGHQLGAVGIPHGVTSCIMLPHVMRFLEPVTSAEQARMAQSLAQVQGDGEDLPAADRLERILDELGVPRRVSEFGVGRDKMDGVARATLGDIVVRESPRPVDETVVYGLLETVW
With B9 the “Activity [U/mg protein] Butyraldehyde” value was 0.188 ± 0.142 U/mg protein.
